Experimental data published in US20260258117A1 (ACADEMISCH ZIEKENHUIS LEIDEN H O D N LUMC, published 2026).

Legend:
[1] = target: T1, Complement Factor H protein (human, UniProt P08603 19-1231); test: plate-bound complement activation assay: BSA-DNP coat, bsAb with normal human serum, FH detected
T1 construct: Plasma protein, bought purified or present in normal human serum; also called FH; CFH
Method: BsAbs were functionally tested in plate-bound complement activation assays. To focus on the classical pathway, MaxiSorp plates were coated with 50 μL/well of a mixture of IgG (10 μg/mL, IVIg, Sanquin) or IgM (1 μg/mL, Merck, 401799) and BSA-DNP (10 μg/mL) or biotinylated BSA-DNP (10 μg/mL, biotinylated in-house) in coating buffer for 1 hour at 37° C. After every incubation, plates were washed three times with PBS/0.05% Tween 20. Plates were blocked with 100 μL/well PBS/1% BSA for 1 hour at 37° C. Samples containing 5 μg/mL (or a titration from 0.1 to 10 μg/mL) bsAbs, 10 μg/mL FH or C4BP, and 1% normal human serum (NHS) in RPMI were preincubated for 30 minutes at 4° C. After washing, plates were incubated with 50 μL/well samples for 1 hour at 37° C. Next, FH and C4BP were detected as described above for the bispecificity ELISA (using goat anti-human FH and HRP-labeled rabbit anti-goat Ig, or using rabbit anti-human C4BP and HRP-labeled goat anti-rabbit Ig), and C5b-9 was detected using mouse anti-human C5b-9 (Dako, M0777) and HRP-labeled goat anti-mouse Ig (Dako, P0447), all diluted in PTB buffer. Plates were developed by incubating with 50 μL/well ABTS containing 1:2000 diluted H₂O₂, and read at 415 nm using a microplate reader. […]

[2] = target: T2, C4b-binding protein (human, UniProt P04003 49-597; P20851 18-252); test: plate-bound complement activation assay: BSA-DNP coat, bsAb with normal human serum, C4BP detected
T2 construct: also called C4BP
T2 sequence (looked up) 1: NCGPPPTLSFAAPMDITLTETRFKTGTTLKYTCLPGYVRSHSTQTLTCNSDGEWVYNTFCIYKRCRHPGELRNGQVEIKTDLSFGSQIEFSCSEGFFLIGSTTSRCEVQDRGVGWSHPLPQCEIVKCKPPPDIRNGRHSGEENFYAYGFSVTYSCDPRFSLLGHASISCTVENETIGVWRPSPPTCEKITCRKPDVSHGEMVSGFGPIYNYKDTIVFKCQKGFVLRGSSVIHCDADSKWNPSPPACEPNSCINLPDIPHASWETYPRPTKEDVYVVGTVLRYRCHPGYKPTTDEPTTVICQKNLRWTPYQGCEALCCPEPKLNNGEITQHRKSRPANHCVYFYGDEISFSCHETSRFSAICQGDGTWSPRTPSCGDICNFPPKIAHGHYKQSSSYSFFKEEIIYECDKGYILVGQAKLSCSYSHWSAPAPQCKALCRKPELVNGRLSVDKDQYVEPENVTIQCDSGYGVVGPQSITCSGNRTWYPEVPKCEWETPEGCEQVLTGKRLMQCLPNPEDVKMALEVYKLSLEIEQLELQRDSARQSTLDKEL
T2 sequence (looked up) 2: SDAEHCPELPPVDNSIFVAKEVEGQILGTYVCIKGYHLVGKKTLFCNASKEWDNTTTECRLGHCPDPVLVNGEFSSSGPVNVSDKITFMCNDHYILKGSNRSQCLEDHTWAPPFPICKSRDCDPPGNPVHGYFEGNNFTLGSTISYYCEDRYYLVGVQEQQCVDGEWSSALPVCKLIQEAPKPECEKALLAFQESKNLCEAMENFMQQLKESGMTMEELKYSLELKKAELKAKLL
Method: BsAbs were functionally tested in plate-bound complement activation assays. To focus on the classical pathway, MaxiSorp plates were coated with 50 μL/well of a mixture of IgG (10 μg/mL, IVIg, Sanquin) or IgM (1 μg/mL, Merck, 401799) and BSA-DNP (10 μg/mL) or biotinylated BSA-DNP (10 μg/mL, biotinylated in-house) in coating buffer for 1 hour at 37° C. After every incubation, plates were washed three times with PBS/0.05% Tween 20. Plates were blocked with 100 μL/well PBS/1% BSA for 1 hour at 37° C. Samples containing 5 μg/mL (or a titration from 0.1 to 10 μg/mL) bsAbs, 10 μg/mL FH or C4BP, and 1% normal human serum (NHS) in RPMI were preincubated for 30 minutes at 4° C. After washing, plates were incubated with 50 μL/well samples for 1 hour at 37° C. Next, FH and C4BP were detected as described above for the bispecificity ELISA (using goat anti-human FH and HRP-labeled rabbit anti-goat Ig, or using rabbit anti-human C4BP and HRP-labeled goat anti-rabbit Ig), and C5b-9 was detected using mouse anti-human C5b-9 (Dako, M0777) and HRP-labeled goat anti-mouse Ig (Dako, P0447), all diluted in PTB buffer. Plates were developed by incubating with 50 μL/well ABTS containing 1:2000 diluted H₂O₂, and read at 415 nm using a microplate reader.

T1 sequence (P08603 19-1231 limits assumed): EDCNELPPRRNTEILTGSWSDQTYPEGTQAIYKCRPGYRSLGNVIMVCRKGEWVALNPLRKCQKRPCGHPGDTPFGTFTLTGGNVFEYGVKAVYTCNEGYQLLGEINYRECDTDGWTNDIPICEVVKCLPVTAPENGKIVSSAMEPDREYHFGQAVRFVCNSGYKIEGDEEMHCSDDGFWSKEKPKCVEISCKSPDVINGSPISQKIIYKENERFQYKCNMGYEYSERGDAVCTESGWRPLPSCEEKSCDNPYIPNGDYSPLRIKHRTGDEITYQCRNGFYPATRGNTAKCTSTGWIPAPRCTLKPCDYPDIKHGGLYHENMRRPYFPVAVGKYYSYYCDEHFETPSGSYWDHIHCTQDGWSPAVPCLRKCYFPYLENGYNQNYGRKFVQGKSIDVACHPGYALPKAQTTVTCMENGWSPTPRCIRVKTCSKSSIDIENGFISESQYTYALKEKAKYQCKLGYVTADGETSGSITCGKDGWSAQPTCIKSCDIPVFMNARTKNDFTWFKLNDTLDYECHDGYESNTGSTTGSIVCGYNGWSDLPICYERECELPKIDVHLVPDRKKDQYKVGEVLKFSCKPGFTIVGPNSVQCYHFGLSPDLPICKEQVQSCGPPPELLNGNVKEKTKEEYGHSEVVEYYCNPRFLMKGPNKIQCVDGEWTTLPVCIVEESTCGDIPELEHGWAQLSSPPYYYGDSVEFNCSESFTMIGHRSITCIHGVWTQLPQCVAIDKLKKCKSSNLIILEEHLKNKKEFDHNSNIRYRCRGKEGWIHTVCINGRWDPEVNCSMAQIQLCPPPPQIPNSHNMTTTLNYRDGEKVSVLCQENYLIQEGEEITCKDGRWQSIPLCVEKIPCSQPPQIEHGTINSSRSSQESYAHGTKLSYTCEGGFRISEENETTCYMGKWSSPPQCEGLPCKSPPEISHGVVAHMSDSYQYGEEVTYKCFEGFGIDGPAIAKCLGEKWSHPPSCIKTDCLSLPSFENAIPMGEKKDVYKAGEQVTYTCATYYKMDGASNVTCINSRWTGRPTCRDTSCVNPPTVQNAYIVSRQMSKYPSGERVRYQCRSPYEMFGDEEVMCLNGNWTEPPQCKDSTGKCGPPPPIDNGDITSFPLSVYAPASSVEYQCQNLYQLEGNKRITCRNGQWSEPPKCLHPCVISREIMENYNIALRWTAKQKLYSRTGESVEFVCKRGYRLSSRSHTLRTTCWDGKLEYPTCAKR

B1: Anti-HIV F405L LALAPG, Anti-DNP K409R LALAPG (bispecific antibody, human IgG1, kappa, L234A L235A)
heavy 1: QVQLVQSGAEVKKPGASVKVSCQASGYRFSNFVIHWVRQAPGQRFEWMGWINPYNGNKEFSAKFQDRVTFTADTSANTAYMELRSLRSADTAVYYCARVGPYSWDDSPQDNYYMDVWGKGTTVIVSSASTKGPSVFPLAPSSKSTSGGTAALGCLVKDYFPEPVTVSWNSGALTSGVHTFPAVLQSSGLYSLSSVVTVPSSSLGTQTYICNVNHKPSNTKVDKRVEPKSCDKTHTCPPCPAPEAAGGPSVFLFPPKPKDTLMISRTPEVTCVVVDVSHEDPEVKFNWYVDGVEVHNAKTKPREEQYNSTYRVVSVLTVLHQDWLNGKEYKCKVSNKALGAPIEKTISKAKGQPREPQVYTLPPSREEMTKNQVSLTCLVKGFYPSDIAVEWESNGQPENNYKTTPPVLDSDGSFLLYSKLTVDKSRWQQGNVFSCSVMHEALHNHYTQKSLSLSPGK
light 1: EIVLTQSPGTLSLSPGERATFSCRSSHSIRSRRVAWYQHKPGQAPRLVIHGVSNRASGISDRFSGSGSGTDFTLTITRVEPEDFALYYCQVYGASSYTFGQGTKLERKRTVAAPSVFIFPPSDEQLKSGTASVVCLLNNFYPREAKVQWKVDNALQSGNSQESVTEQDSKDSTYSLSSTLTLSKADYEKHKVYACEVTHQGLSSPVTKSFNRGEC
heavy 2: DVRLQESGPGLVKPSQSLSLTCSVTGYSITNSYYWNWIRQFPGNKLEWMVYIGYDGSNNYNPSLKNRISITRDTSKNQFFLKLNSVTTEDTATYYCARATYYGNYRGFAYWGQGTLVTVSAASTKGPSVFPLAPSSKSTSGGTAALGCLVKDYFPEPVTVSWNSGALTSGVHTFPAVLQSSGLYSLSSVVTVPSSSLGTQTYICNVNHKPSNTKVDKRVEPKSCDKTHTCPPCPAPEAAGGPSVFLFPPKPKDTLMISRTPEVTCVVVDVSHEDPEVKFNWYVDGVEVHNAKTKPREEQYNSTYRVVSVLTVLHQDWLNGKEYKCKVSNKALGAPIEKTISKAKGQPREPQVYTLPPSREEMTKNQVSLTCLVKGFYPSDIAVEWESNGQPENNYKTTPPVLDSDGSFFLYSRLTVDKSRWQQGNVFSCSVMHEALHNHYTQKSLSLSPGK
light 2: DIRMTQTTSSLSASLGDRVTISCRASQDISNYLNWYQQKPDGTVKLLIYYTSRLHSGVPSRFSGSGSGTDYSLTISNLEQEDIATYFCQQGNTLPWTFGGGTKLEIKRTVAAPSVFIFPPSDEQLKSGTASVVCLLNNFYPREAKVQWKVDNALQSGNSQESVTEQDSKDSTYSLSSTLTLSKADYEKHKVYACEVTHQGLSSPVTKSFNRGEC
notes: also called anti-HIV x anti-DNP
binding result [1]: no binding
binding result [2]: no binding
